Assay results taken from patent publication US7402570 (Johns Hopkins, dated 2008).

Molecular target: T1, human p53 protein, full length (human, UniProt P04637 1-393)
T1 construct: range 1-393; it is not clear whether that entry is whole p53 or the peptide, so it is not used here
Test: yeast two-hybrid, lexA-responsive β-galactosidase reporter; (+) colonies turned blue following 24 hours (strain 4)

T1 sequence (P04637 whole entry): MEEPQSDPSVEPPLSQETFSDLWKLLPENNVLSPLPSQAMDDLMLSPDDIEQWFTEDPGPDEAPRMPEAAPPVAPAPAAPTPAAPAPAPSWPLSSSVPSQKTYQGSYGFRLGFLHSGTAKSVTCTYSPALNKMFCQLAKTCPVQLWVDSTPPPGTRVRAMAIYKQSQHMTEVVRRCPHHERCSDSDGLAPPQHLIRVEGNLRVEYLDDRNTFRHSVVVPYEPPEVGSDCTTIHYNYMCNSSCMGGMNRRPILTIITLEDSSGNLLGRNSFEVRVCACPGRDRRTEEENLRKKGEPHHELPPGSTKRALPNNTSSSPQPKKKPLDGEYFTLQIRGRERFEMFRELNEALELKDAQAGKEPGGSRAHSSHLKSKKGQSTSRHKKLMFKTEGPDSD

binding result: binds
B1: lexA-MDM2 (1-118) (other, not shown: small tags and cut ends)
chain: MCNTNMSVPTDGAVTTSQIPASEQETLVRPKPLLLKLLKSVGAQKDTYTMKEVLFYLGQYIMTKRLYDEKQQHIVYCSNDLLGDLFGVPSFSVKEHRKIYTMIYRNLVVVNQQESSDS
notes: Genetically engineered clone, expressed in yeast; also called MDM2 codons 1 to 118 fused to lexA
